The data set can be described thus: yeast display, Sf9 membrane polyspecificity reagent, FACS + sequencing; frameworks hold sequencing errors. In a few lines:
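Synthetic nanobody libraries on Saccharomyces cerevisiae BJ5465 were galactose-induced for 36–48 hours, stained 1 hour at 4 °C with 10% biotinylated, detergent-solubilized Sf9 membrane reagent and enriched on streptavidin microbeads. FACS then separated cells into low and high (top ~1%) gates by anti-HA (expression) and streptavidin (reagent binding) fluorescence. Genes were colony-PCR amplified, MiSeq 2 × 250 sequenced and CDR-length filtered. A clone's polyreactivity label is that of its gate of origin.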
With “QVQLVESGGGLVQAGGSLRLSCAASGRTFVYNAMGWYRQAPGKERELVAAITRSGGRTYYADSVKGRFTISRDNAKNTVYLQMNSLKPEDTAVYYCSARISRWYAYGTDIKEGDYWGQGTQVTVSS”, the “polyreactivity (PSR sort gate)” value was “low polyreactivity”.
With “QVQLVESGGGLVQAGGSLRLSCAASGRTFVYNAMGWYRQAPGKERELVAGITNGGSTNYADSVKGRFTISRDNAKNTVYLQMNSLKPEDTAVYYCAADSRVYPYYFGDFGYWGQGTQVTVSS”, the “polyreactivity (PSR sort gate)” value was “low polyreactivity”.
The entry for “QVQLVESGGGLVQAGGSLRLSCAASGRTFVYNAMGWYRQAPGKERELVATIRSSGGSTYYADSVKGRFTISRDNAKNTVYLQMNSLKPEDTAVYYCAARWRPYGKFYYWGQGTQVTVSS” is “high polyreactivity”; for “QVQLVESGGGLVQAGGSLRLSCAASGRTFVYNAMGWYRQAPGKERQLVAGITNGGSTNYADSVKGRFTISRDNAKNTVYLQMNSLKPEDTAVYYCAADSRVYPYYFGHFGFWGQGTQVTVSS” it is “low polyreactivity”.
Turning to “QVQLVESGGGLVQAGGSLRLSCAASGRTFVYNAMGWYRQARGKEREFVAAISSGGGTNYADSVKGRFTISRDNAKNTVYLQMNSLQPEDTAVYYCAAGSVSIFRGYRDYYNPKEYDYCGQGTQVTVSS”, the “polyreactivity (PSR sort gate)” value is “low polyreactivity”.
For “QVQLVESGGGLVQAGGSLRLSCAASGRTFVYYAMGWYRPAPGKERELVAAISSRGGSTYYADSVKGRFTISRDNAKNTVYLQMNSLKPEDTAVYYCAAVKGPERPTSPYDYWGQGTQVTVSS” the value was “high polyreactivity”; for “QVQLVESGGGLVQAGGSLRLSCAASGRTFVYYAMGWYRQAPGKERELVAAISSRGGSTYYADTVKGRFTISRDYAKNSVYLQMYSLKPEDTAVYYCAAVIGPERPTSPFDFWGQGTQVTVSS”, “high polyreactivity”.
For “QVQLVESGGGLVQAGGSLRLSCAASGRTFVYYAMGWYRQAPGKERELVAAITSVGSTYYADSVKGRCTISRDNAKNTVYLQMNSLKPEDTAVYSCAKDTWAYPYYWPYDDYWGHGTQVTVSS” the value was “low polyreactivity”.
The entry for “QVQLVESGGGLVQAGGSLRLSCAASGRTFVYYAMGWYRQAPGKERELVARISSGGSTYYADSVKGRFTISRDNAKNTVYLQMYSLKPEDTAVYYCAADAWYVWEYWWQPEDDYWGQGSQVTVSS” is “high polyreactivity”.
With “QVQLVESGGGLVQAGGSLRLSCAASGRTFVYYAMGWYRQAPGKERELVASISSGGGSTNYADSVKGRFTISRDNAKNTVYLQMNSLKPEDTAVYYCAVDTPRYRYYRTSYDYWGQGTQVTVSS”, the “polyreactivity (PSR sort gate)” value is given as “low polyreactivity”.
For “QVQLVESGGGLVQAGGSLRLSCAASGRTFVYYTLGWYRQPPGKERELVARISAGGGITYYADSVKGRFTISRDNAKNTVYLQMNSLNREDTAVYYCAADYWFTYRRPAYEYAYWGQGTQVTVSS” the value was “high polyreactivity”; for “QVQLVESGGGLVQAGGSLRLSCAASGRTFWAYAMGWYRQAPGKERELVAAITTSGGSTNYADSVKGRFTISRDNAKNTVYLQMNSLKPEDTAVYYCNADPTYHVVNGVGYLGQGTQVTVSS”, “low polyreactivity”.
For “QVQLVESGGGLVQAGGSLRLSCAASGRTFWAYAMVWYRQAPGKERELVADITNGGSTYYADSVKGRFTISRDNAKNTVYLQMNSLKPEDTAVYYCNALTHWAPASYEYDYWGQGTQVTVSS” the value was “low polyreactivity”.
The entry for “QVQLVESGGGLVQAGGSLRLSCAASGRTFWFYTMGWYRQAPGKERELVAAISSGGSTNYADSVKGRFTISRDNAKNTVYLQMNSLKPEDTAVYYCNARFPVGPSEDAVWYYPKYDYWGQGTQVTVSS” is “low polyreactivity”; for “QVQLVESGGGLVQAGGSLRLSCAASGRTFWFYTMGWYRQAPGKERELVADIRRSGGSTYYADSVKGRFTISRDNAKNTVYLQMNSLKPEDTAVYYCASDPRRLAAGYTRYVYWGQGTQVTVSS” it is “high polyreactivity”.
In the case of “QVQLVESGGGLVQAGGSLRLSCAASGRTFWGYTMGWYRQAPGKERELVAAITASGGSTRYADSVKGRFTISRDNAKNTVYLQMNSLKPEDTAVYYCASRGQYFTDYYYRGNYWGQGTQVTVSS”, the “polyreactivity (PSR sort gate)” value is listed as “high polyreactivity”.
For the sequence “QVQLVESGGGLVQAGGSLRLSCAASGRTFWGYVMGWYRQAPGKERELVAAISRGDSTYYADSVKGRFTISRDNAKNTVYLQMNSLKPEDTAVYYCAKPGYYVRYGYWGQGTQVTVSS”, the “polyreactivity (PSR sort gate)” value was “high polyreactivity”.
The entry for “QVQLVESGGGLVQAGGSLRLSCAASGRTFWIYAMGWYRQAPGKERELVAAITGSGGSTYYADSVKGRFTISRDNAKNTVYLQMNSLKPEDTAVYYCNARVPDSYKWSAYYSHDYWGQGTQVTVSS” is “low polyreactivity”; for “QVQLVESGGGLVQAGGSLRLSCAASGRTFWKYAMGWYRQAPGKERELVAAITASGARTYYADSVKGRFTISRDNAKNTVYLQMNSLKPEDTAVYYCNAGSVSDRQMDYWGQGTQVTVSS” it is “low polyreactivity”.
For “QVQLVESGGGLVQAGGSLRLSCAASGRTFWLNAMGWYRQAPGKERELVATISRGGSTNYADSVKGRFTISRDNANNTVYLQMNSLKPEDTAVYYCAARRYYWLRGYNYWGQGTQVTVSS” the value was “high polyreactivity”; for “QVQLVESGGGLVQAGGSLRLSCAASGRTFWNYAMGCYRQAPGKERELVAAISSSGGTTYYADSVKGRFTISRDNAKNTVYLQMNTLKPEDTAVYYCAATGVSKPQRSFGYWGQGTQVTVSS”, “low polyreactivity”; for “QVQLVESGGGLVQAGGSLRLSCAASGRTFWNYAMGWYRQAPGKERELVAAISSSGGTTYYADSVKGRFTISRDNAKNTVYLQMNSLKPEDTAVYYCAATGVSKPQRSFGYWGQGTQVTVSS”, “low polyreactivity”.
The entry for “QVQLVESGGGLVQAGGSLRLSCAASGRTFWNYAMGWYRQAPGKEREMVAVIRFSDGSTYYADSVKGRFTISRDNAKNTVYLQMNSLKPEDTAVYYCAAKGPRRWGSGFDYWGQGTQVTVSS” is “low polyreactivity”.
Consider “QVQLVESGGGLVQAGGSLRLSCAASGRTFWTNAMGWYRQAPGKEREFVAAISWRGASTFYADSVKGRFTISRDNAKNTVYLQMNSLNPEDTAVYYCAAQSRTRSFYGKYDSWGQATQVTVSS”, for which the “polyreactivity (PSR sort gate)” value is on record as “low polyreactivity”.
The entry for “QVQLVESGGGLVQAGGSLRLSCAASGRTFWVYAMGWYRQATGKERELVATISKSAGITSYADSVKGRFTFSRDNAKNTVYLQMNSLKPEDTAVFYCAADKSYRRVYYWGQGTQVTVSS” is “low polyreactivity”.
Consider “QVQLVESGGGLVQAGGSLRLSCAASGRTFWWYAMGWYRQAPGKERELVAAITQSGGSTFYADSVKGRFTISRDNAKNTVYLQMNSLKPEDTAVYYWGQGTQVTVSS”, for which the “polyreactivity (PSR sort gate)” value was “low polyreactivity”.
As for “QVQLVESGGGLVQAGGSLRLSCAASGRTFWWYAMGWYRQAPGKERELVAGISGSTGTTHYADSVKGRFTISRDNAKNTVYLQMNSLKPEDTAGYYCAARRRYYRGFLFDYWGQGTQVTVSS”, the “polyreactivity (PSR sort gate)” value is reported as “high polyreactivity”.
With “QVQLVESGGGLVQAGGSLRLSCAASGRTFWYNAMGWYRQAPGKERELVAAITSSGGSTYYADSVKGRFTISRDNAKNTVYLQMNSLKPEDTAVYYCNKRPGPYKWPPRHDYWGQGTQVTVSS”, the “polyreactivity (PSR sort gate)” value was “low polyreactivity”.
Turning to “QVQLVESGGGLVQAGGSLRLSCAASGRTFWYNAMGWYRQAPGKERELVATINSVGSTNYADSVKGRFTISRDNAKNTVYLQMNSLKPEDTAVYDCNAGYGYVRGRKGGAIVKYYYWGQGTQVTVSS”, the “polyreactivity (PSR sort gate)” value was “high polyreactivity”.
For “QVQLVESGGGLVQAGGSLRLSCAASGRTFWYNARGWYRQAPGKERELVAAITRGGGRTYYADSVKGRFTISRDNAKNTVYLQMNSPKPEDTAVYYCADDSHYDMNYWGQGTQVTVSS” the value was “low polyreactivity”; for “QVQLVESGGGLVQAGGSLRLSCAASGRTFWYYAMGWYREAPGKERELVAAITRGGRTNYADSVKGRFTISRDNAKNTVYLQMKSLKPEDTAVYYCAADYRYPAHSYGYWGQGTLVTVSS”, “high polyreactivity”.
For “QVQLVESGGGLVQAGGSLRLSCAASGRTFWYYAMGWYRQAPGKERELVAAITWSGSDTYYADSVKGRFTISRDNAKNTVYLLMNSLKPEDTAVYYCAAEYSYESSGYDYWGQGTQVTVSS” the value was “high polyreactivity”; for “QVQLVESGGGLVQAGGSLRLSCAASGRTFWYYAMGWYRQAPGKERELVAGITFTGGRTYYADSVKGRFTISRDNAKNTVYLQMNSLKPEDTAVYYCAKATEYYAESDDYDYWGQGTQVTVSS”, “low polyreactivity”.
On to “QVQLVESGGGLVQAGGSLRLSCAASGRTFWYYAMGWYRQAPGKERELVASISASGGSTFYADSVKGRFSISRDHAKNTVYLQMNSLKPEDTAVYYCAAKNAVWRRYEYWGQGTQVTVSS”, for which the “polyreactivity (PSR sort gate)” value was “high polyreactivity”.
For “QVQLVESGGGLVQAGGSLRLSCAASGRTFYANAMGWYRQAPGKERELVAAISRGGRTYYADSVKGRFTISRDNAKNTVYLQMNIMIPEDTSVYYCAARHTTTAVYSYYRADGGYWGQGTQVTVSS” the value was “low polyreactivity”; for “QVQLVESGGGLVQAGGSLRLSCAASGRTFYANAMVWYRQAPGKERELVAGISYSGGNTYYADSVKGRFTISRDNAKNTVYIQMNSLKPEDTAVYYCAAATVWEYWTYEDWGQGTQVTVSS”, “low polyreactivity”.
Take “QVQLVESGGGLVQAGGSLRLSCAASGRTFYAYAMGWYRQAPGKERELVAAINTSGGRTYYADSVKGRFTISRDNAKNTVYLLMNSLKPEDTAVYYCAADVFTFYPRRYDYWGQGTQVTVSS”: the “polyreactivity (PSR sort gate)” value is listed as “low polyreactivity”.
Turning to “QVQLVESGGGLVQAGGSLRLSCAASGRTFYAYAMGWYRQAPGKERELVAAINTSGGRTYYADSVKGRFTISRDNAKNTVYLQMNSLKPEDTAVYYCAADVYTFYPRRYDYWGQGTQVTVSS”, the “polyreactivity (PSR sort gate)” value is listed as “low polyreactivity”.
For “QVQLVESGGGLVQAGGSLRLSCAASGRTFYAYAMGWYRQAPGKERELVAAISWRGGRTYYADSVKGRFTISRDNAKNTVYLQMNSLKPEDTAVYYCAAEYSYGFDYWGQGTQVTVSS” the value was “high polyreactivity”; for “QVQLVESGGGLVQAGGSLRLSCAASGRTFYAYGMGWYRQAPGKERELVARISSSTGRTYYADSVKGRFTISRDNAKNTVYLQMNSLKPEDTAVYYCAALFYGYRGGGYGGPAAGDYWGQGTQVTVSS”, “high polyreactivity”.

The values above are taken from the nanobody polyreactivity screen of Harvey et al. (2022).
